Assay results as given in PMC12802285, “PPE64 is a mycomembrane channel protein that functions in heme iron uptake and moonlights in biofilm formation in Mycobacterium tuberculosis” (mBio, 2025).
Several values for one entry are separate records, joined by “and”; a condition that tells them apart may be missing. Equal values may be shown once.

Target: the molecule itself
Experiment: native gel or EMSA

B1: PPE64 mycomembrane channel protein (recombinant, detergent-refolded) (natural protein)
chain: MAHFSVLPPEINSLRMYLGAGSAPMLQAAAAWDGLAAELGTAASSFSSVTTGLTGQAWQGPASAAMAAAAAPYAGFLTTASAQAQLAAGQAKAVASVFEAAKAAIVPPAAVAANREAFLALIRSNWLGLNAPWIAAVESLYEEYWAADVAAMTGYHAGASQAAAQLPLPAGLQQFLNTLPNLGIGNQGNANLGGGNTGSGNIGNGNKGSSNLGGGNIGNNNIGSGNRGSDNFGAGNVGTGNIGFGNQGPIDVNLLATPGQNNVGLGNIGNNNMGFGNTGDANTGGGNTGNGNIGGGNTGNNNFGFGNTGNNNIGIGLTGNNQMGINLAGLLNSGSGNIGIGNSGTNNIGLFNSGSGNIGVFNTGANTLVPGDLNNLGVGNSGNANIGFGNAGVLNTGFGNASILNTGLGNAGELNTGFGNAGFVNTGFDNSGNVNTGNGNSGNINTGSWNAGNVNTGFGIITDSGLTNSGFGNTGTDVSGFFNTPTGPLAVDVSGFFNTASGGTVINGQTSGIGNIGVPGTLFGSVRSGLNTGLFNMGTAISGLFNLRQLLG
notes: also called PPE64_(OPOE); PPE64DDM
  stoichiometry N: 9 and 3
